According to the domain aggregation screens of Martell et al. (2025):

experiment: soluble fraction after stress (log2 fold change); higher = more stays soluble; pooled small domains, quantitative proteomics; conditions: stress: 75 degC
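Note: 20 min heating vs room temperature control held 20 min.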

| Sequence | soluble fraction (log2) |
| --- | --- |
| HMTTRLLTPRQRQVFDIAIREGFYDSPRRISLTELADLLGVAKSTLSVQLQRVESTIVHTFSEEIRRRS | -2.66 |
| HMTTRQREALLDYLSRHPDQPLTVREIAAGVEPDGVSLSAVYRNLAELEAAGLIRRESRPGSREAVVQYV | -0.0192 |
| HMTTTTTYITNTDAVNIRQQATTSSTSLGKLAKNTILSVKKKSGDWYQITYKKQTAYIHASLVDKKTAKVT | -1.62 |
| HMTTVDYDALRAAILQQVVSEDTTPALTTENTEIKYKFKFGLDTWVDLDGGKIAPAVSAKSYEIQISFKG | 0.185 |
| HMTTYVNGSWSGWNGSTVVKLTDGSVWRQAEYHYEYHYAYRPQARLERDELFVEGMSRGVRV | -0.0587 |
| HMTVADMQQKANVKRRNSNSHEAILDATVKLLGSSGYIDFSIEKVASQAGVGKQTIYRWWPSRADLVLEVW | -0.506 |
| HMTVAEVEDRMEASRVRQALDAVGEPHRTTIALAYFTGLTHTEIAQRMGVPLGTVKSRIRDGMAKMRTHLG | -1.24 |
| HMTVDHDERRSMILEAFMRLAAREGLHAVSLRGVAAEAGISLRLVQYYFETKARLMQSGLTALET | -0.141 |
| HMTVKKLIINEDNSGRRIDNYLLSIFNSVPRSKIYNIIRKGEVRVNSSRIKPSYRLEEGDQVRIPPNLDYT | -1.05 |
| HMTVKRNILQELLKTAFKHPEDFRPSKTFYGETGIGQKRFWALYYGHKAVTQKEYYAVADYLG | -0.0737 |
| HMTVLDYNENVLSKVMNAAEINDSDKEAFIAFAKDYNSDDNLYLKKEELETAAGAWNARNVE | 0.2 |
| HMTVLTDEIKVILISYIKENDFKKKHGNRKMMMTAQDMYDELVEKGYKISYPTVTQYVQKYRENETT | -1.63 |
| HMTVMTGSQRRKKILELMRDAKEPLSGGALGKETGVSRHVVVQDIALLRTQGYPIVATARGYIINE | -1.32 |
| HMTVRLSVSADGKFFWNESQVSEEELFPRLQAEAAKEPQPDLHIRGDKNVRYEFVAQAMAAAQRAGVRKI | -0.797 |
| HMTVSADQTAADAVIKLINAIGTVSENSGSAISAARSGYDALTDTQKKLVTNYNKLTQAEQVFSSLPS | 0.336 |
| HMTVSGNIAGDYKDYLPQKTDVINGMTVTYRMVDDAVYLASWKHAGQNHVFLFNDPVSVERAREMI | -0.556 |
| HMTVSIDSLFDKFEDLQEQGLGDKTEEGQELRGLIRAFIEQEHLSVRITRSTSNQELLDMIEEAMQ | -1.25 |
| HMTVSRRYTENEMETALKAYLATHNFISRRDMQQEFALTIYSARKWLNHFVDVGLIERIGLKNAPIYKL | -0.0893 |

| Sequence | soluble fraction (log2) |
| --- | --- |
| HMTVTKYGKKILEIVSSSRSHMTAEEIFDALRQTYPTVVLATVYNNLNRLWQDDLIRKVSVEGMPDRYD | -1.28 |
| HMTVVPNIVNQPEAAGTNLLISSNLKPGNRAVQYSDTVKAGDIISQSPEPGAQATLGGKVDYVISQGPAPT | 0.174 |
| HMTWIAEIELRLMGNGAVTGAKIVKSTDLKDVDAAIYRAALEASPYPAPESGIGGRFTIKLKY | -0.037 |
| HMTYLIKFDENGRRSDTYVAEEKTQEQVTELLEKGFVLITEEDYQLLVGNVDGKEYIRNADGTYSEYT | 0.563 |
| HMTYMWTTDGVNLRSEPNTDSAVVTVLGVGTQVRMIGEEDGWVKVSFNDQEGYIRADFLTTE | -0.198 |
| HMTYSAFITARNKRIAEEYSVLLDSLNISNNVIYRLGSWVVEVNVSDHSRAIDEIYSYERSGRIDKV | -3.1 |
| HMTYYEGYYRKNQKGFGFVIVDGRDEDIYIDAKNMNGALNNDLVVVEELKGQNGKKTEGRVVKVLKKE | -0.17 |
| HMVADLSGVGDKDIIVDQFIYHEVLPKETIYSIVKSFNVTSEDLNKNNPFLRANGLRIGQVIRIPLKI | -1.27 |
| HMVAEPTYGRTTDVLNIRSGPSTDDERIGQLSRGAVVTILEEKDGWYRLQRGYISADYVTQISAEEASNS | -0.0612 |
| HMVAEPVYGKVTEGPLNVRSAPSTDSEKVDSFSTGKVLTILETLDGWYKVEEGYVSADYVTIIDAAEAASS | -0.162 |
| HMVAGHLSEKKGYYYAVLNYKDYTGKRKSKWVSTGLPVKGNKRRAEKILADIKRDFVPEEPKR | -0.96 |
| HMVAGQDPVKRQQILDGAKRVFLGVGFDAASMNDITREAGVSKGTIYVYFGSKEELFGALIDR | -0.828 |
| HMVAMLDASYRGVMQTISTLLAQGNTERAYDEAVNARGQMSKQQWNNLANLIWERTGQKIDSGVSYK | 0.367 |
| HMVDEAQSLERNVLLTVLSRIGRDSRVVLTHDIAQRDNLRVGRHDGVVAVVDRLKGHPLFAHVTL | 0.163 |
| HMVDERMVTYINSLDKGNTPFLNELEKEALANYVPIIRREMQSFLKVLLQIKAPLRILEVGTAVGFSTILM | 0.0501 |
| HMVDGAHKQQAAVQALTPALKVLAAAPEGKKGQAIQALRAVLKQHGRWLDDATAQQVHEQLLAAGDAQGWQ | 0.478 |
| HMVDIGQSIRVELIREGKDSHQAVGYLRDGSMVVVNHGRKLIGSTVEVEITSIVPSSAGKVIFAEYLE | -2.67 |
